Laboratory results reported in publication PMC11508087 (2024).

What was measured:
Assay in all cases: BLI
[1] = molecular target: T1, FMDV O/Tibet/99 146S antigen (foot-and-mouth disease virus serotype …)
[2] = molecular target: T2, FMDV A/AF72 146S antigen (foot-and-mouth disease virus serotype …)
[3] = molecular target: T1, FMDV O/Tibet/99 146S antigen; remark: listed apart in the source
[4] = molecular target: T2, FMDV A/AF72 146S antigen; remark: listed apart in the source

Binder	koff [1] [s⁻¹]	koff [2] [s⁻¹]	Kd [3] [nM]	Kd [4] [nM]
pOA-2 (antibody, V domains shown) VH: EEKVVESGGGLVQPGGSLRLSCVGSGFNFKNYEINWVRQAPGKALEWLAYITQTSDFIYYADSVKGRFTISRDNSRNTAYLQMNNLRTEDTARYFCTRAGLTGCKSRHCMYVWGPGAEVVVSS VL: QTVIQEPAMSVSLGGTVTLTCGFISGSVTGTNYPSWFQQTPGQPPRLLIYYANSRPTEVPSRFSGAISGNKAALTITGAQAEDEADYFCCLYKTNNNILFGGGTHLTVL	0.00242	0.00249	4.85	4.44
pOA-13 (antibody, V domains shown) VH: EGQLVQSGGGRVQPGGSLRLVCVGSGDDGLGHYAVTWVRQAPGRGLEWLASDASRVTTTYYADSVKGRFTSTLDIPHNTAYLQMNSLKTEDTARYFCARNVWTLDIWGPGVEVVVS VL: QTVIQEPAMSVSLGGTVTLTCAFRGGSVDGDNYPGWLRQQTPGQPPRLLISSTNNRPTGVPSRFSGTISGNKATLTITGAQTEDEADYFCALWNDNNNRLIFGGGTRLTVL	0.00143	0.00634	1.8	5.11
pOA-1 (antibody, V domains shown) VH: EENVVESGGGLVRPGGSLRLSCIFSGFTFSTYSVRWVRQAPGKGLEFLTYIFKNVGDIDTADSVKGRFTISRDNSQNTAYLQMNSLRPEDTARYFCLVANKYWGPGVEVLVSS VL: AIVLTQSPLSLSVSPGDSASISCRSSQSLVEDDGSSVLNWYLQRPGQSPQRLIYSAVGRDAGVPDRFSGSGSGTDFTLTISGVEAEDLGVYYCQQSKVSTTFGAGSKLDLK	2.88e-05	0.00467	–	2.48
